# In US20080274134A1:
# Biological target: Protein G on µMACS Protein G microbeads (Group G Streptococci) (UniProt P06654)
# Experiment: immobilisation on µMACS Protein G microbeads
# Chain of UniProt P06654 (P06654 228-352): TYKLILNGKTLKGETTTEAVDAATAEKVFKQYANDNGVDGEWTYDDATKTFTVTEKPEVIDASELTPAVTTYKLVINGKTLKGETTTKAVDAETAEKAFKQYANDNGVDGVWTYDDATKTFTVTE
row,capacity of the microbeads (µg per ml of microbead suspension),Substance
1,95,human monoclonal antibody 2F5
2,60,human monoclonal antibody 2G12
3,55,human monoclonal antibody IgG1b12
